The text below walks through data of paper PMC11473951.

Test in all cases: SPR
Background: Surface plasmon resonance follows binding to a sensor surface in real time, without labels.

The target of test [1] is human monoclonal antibody R5.016 (human).
Test [2] deals with human monoclonal antibody R5.034 (human).
The target of test [3] is monoclonal antibody 9AD4 (mouse).
Chain of monoclonal antibody 9AD4 (mouse) (light, as listed by the source, chain 2 of 2, other chains not shown): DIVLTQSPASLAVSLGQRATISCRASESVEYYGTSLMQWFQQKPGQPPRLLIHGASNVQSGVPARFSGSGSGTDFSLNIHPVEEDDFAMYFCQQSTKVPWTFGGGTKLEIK

Chain of human monoclonal antibody R5.016 (human) (heavy, as listed by the source, chain 1 of 2): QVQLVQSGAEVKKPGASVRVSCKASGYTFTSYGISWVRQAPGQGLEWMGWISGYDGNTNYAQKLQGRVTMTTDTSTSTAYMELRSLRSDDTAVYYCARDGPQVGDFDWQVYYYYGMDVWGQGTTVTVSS
Chain of human monoclonal antibody R5.016 (human) (light, as listed by the source, chain 2 of 2): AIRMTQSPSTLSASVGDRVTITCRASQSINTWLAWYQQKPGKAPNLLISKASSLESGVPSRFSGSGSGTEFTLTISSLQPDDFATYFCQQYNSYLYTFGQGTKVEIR
Chain of human monoclonal antibody R5.034 (human) (heavy, as listed by the source, chain 1 of 2): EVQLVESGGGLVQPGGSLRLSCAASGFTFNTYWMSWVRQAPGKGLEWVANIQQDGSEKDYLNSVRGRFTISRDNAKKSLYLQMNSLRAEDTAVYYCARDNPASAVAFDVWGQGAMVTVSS
Chain of human monoclonal antibody R5.034 (human) (light, as listed by the source, chain 2 of 2): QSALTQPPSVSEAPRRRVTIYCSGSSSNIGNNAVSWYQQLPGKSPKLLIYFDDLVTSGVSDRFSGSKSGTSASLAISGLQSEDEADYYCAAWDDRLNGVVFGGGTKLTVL

Usually Kd stands for the concentration at which binding is half-saturated. For “PfRH5 (from UniProt Q8IFM5 25-526) (natural protein)”, the Kd in test [1] was 2.4 nM; in test [2], 0.094 nM; in test [3], 1.6 nM.
